Key:
[1] = BHET released, HPLC; higher = more BHET released; extreme values may be limits of the assay; settings: 24 h
Procedure: (§1)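 Purified PET hydrolases, 2.5 ug enzyme on 3.5 mg amorphous PET film (aFilm) or crystalline PET powder (cryPow) in 0.5 mL of 50 mM buffer (NaCitrate pH 4.5/5.5, NaPhosphate 6.5/7.5, glycine 8.5/9.5) at 60 or 70 C with shaking for 24 h. Total aromatic product by UV-Vis (260/280 nm, blank-subtracted, normalised per mg enzyme) and individual TPA, MHET, BHET concentrations by UHPLC-DAD at 240 nm; duplicate reactions.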

[2] = MHET released, HPLC; higher = more MHET released; extreme values may be limits of the assay; settings: 24 h
Procedure: as §1

[3] = terephthalic acid (TPA) released, HPLC; higher = more TPA released; extreme values may be limits of the assay; settings: 24 h
Procedure: as §1

[4] = PET hydrolysis product formed (TPA+MHET+BHET, UV-Vis) per mg enzyme (mmol/mg enzyme); higher = more PET depolymerisation activity; extreme values may be limits of the assay; settings: 2 h
Procedure: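 Purified PET hydrolases (His-SUMO cleaved, E. coli C41(DE3) small-scale expression), 2.5 ug enzyme on 3.5 mg amorphous PET film (aFilm) or crystalline PET powder (cryPow) in 0.5 mL of 50 mM buffer (NaCitrate pH 4.5/5.5, NaPhosphate 6.5/7.5, glycine 8.5/9.5) at 60 or 70 C with shaking for 2 h. Soluble aromatic products (TPA+MHET+BHET) were quantified by UV-Vis at 260/280 nm, blank-subtracted against the no-enzyme control, and normalised per mg enzyme; duplicate reactions.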

ADNPYQRGPDPTNASIEAATGPFAVGTQPIVGASGFGGGQIYYPTDTSQTYGAVVIVPGFISVWAQLAWLGPRLASQGFVVIGIETSTITDLPDPRGDQALAALDWATTRSPVRSRIDRTRLAAAGWSMGGGGLRRAACQRPSLKAIVGMAPWNTEKNWSCVTVPTLFFGGSSDAVASPNDHAKPFYNSITRAEKDYIELCNADHFFPTSANTTMAKYFISWLKRWVDNDTRYTQFLCPGPSTGLFAPVCASMNTCPF [CaPETaseM9]
Settings | BHET released, [1] [mM] | MHET released, [2] [mM] | PET hydrolysis product formed, [4] | terephthalic acid, [3] [mM]
PET substrate: aFilm, 60 °C, pH 4.5 | 0 | 0.00378 | 0 | 0.00338
PET substrate: aFilm, 60 °C, pH 5.5 | 0 | 0.0574 | 0 | 0.0407
PET substrate: aFilm, 60 °C, pH 6.5 | 0 | 0.106 | 0.00371 | 0.0535
PET substrate: aFilm, 60 °C, pH 7.5 | 0 | 0.299 | 0.0032 | 0.165
PET substrate: aFilm, 60 °C, pH 8.5 | 0 | 0.108 | 0.0152 | 0.0537
PET substrate: aFilm, 60 °C, pH 9.5 | 0 | 0.123 | 0 | 0.297
PET substrate: aFilm, 70 °C, pH 4.5 | 0 | 0 | 0 | 0
PET substrate: aFilm, 70 °C, pH 5.5 | 0 | 0 | 0 | 0
PET substrate: aFilm, 70 °C, pH 6.5 | 0 | 0 | 0 | 0
PET substrate: aFilm, 70 °C, pH 7.5 | 0 | 0 | 0 | 0
PET substrate: aFilm, 70 °C, pH 8.5 | 0 | 0.00345 | 0 | 0
PET substrate: aFilm, 70 °C, pH 9.5 | 0 | 0 | 0 | 0.00887
PET substrate: cryPow, 60 °C, pH 4.5 | 0.00607 | 0.03643 | 0.0116 | 0.0214
PET substrate: cryPow, 60 °C, pH 5.5 | 0 | 0.0852 | 0.0306 | 0.0432
PET substrate: cryPow, 60 °C, pH 6.5 | 0.00315 | 0.103 | 0.0384 | 0.0325
PET substrate: cryPow, 60 °C, pH 7.5 | 0 | 0.183 | 0.0693 | 0.0946
PET substrate: cryPow, 60 °C, pH 8.5 | 0 | 0.0922 | 0.0382 | 0.0338
PET substrate: cryPow, 60 °C, pH 9.5 | 0 | 0.0663 | 0.0436 | 0.336
PET substrate: cryPow, 70 °C, pH 4.5 | 0 | 0 | 0 | 0
PET substrate: cryPow, 70 °C, pH 5.5 | 0 | 0.0148 | 0.00828 | 0.0031
PET substrate: cryPow, 70 °C, pH 6.5 | 0 | 0.0346 | 0.0134 | 0.0109
PET substrate: cryPow, 70 °C, pH 7.5 | 0 | 0.0406 | 0.0293 | 0.0454
PET substrate: cryPow, 70 °C, pH 8.5 | 0 | 0.0381 | 0.0155 | 0.0207
PET substrate: cryPow, 70 °C, pH 9.5 | 0 | 0 | 0.0183 | 0.0926

ANPYERGPNPTDALLEARSGPFSVSEENVSRLSASGFGGGTIYYPRENNTYGAVAISPGYTGTEASIAWLGERIASHGFVVITIDTITTLDQPDSRAEQLNAALNHMINRASSTVRSRIDSSRLAVMGHSMGGGGSLRLASQRPDLKAAIPLTPWHLNKNWSSVTVPTLIIGADLDTIAPVATHAKPFYNSLPSSISKAYLELDGATHFAPNIPNKIIGKYSVAWLKRFVDNDTRYTQFLCPGPRDGLFGEVEEYRSTCPF [TfCut2]
Settings | BHET released, [1] [mM] | MHET released, [2] [mM] | PET hydrolysis product formed, [4] | terephthalic acid, [3] [mM]
PET substrate: aFilm, 60 °C, pH 4.5 | 0 | 0 | 0 | 0
PET substrate: aFilm, 60 °C, pH 5.5 | 0.00214 | 0.0544 | 0 | 0.0433
PET substrate: aFilm, 60 °C, pH 6.5 | 0.00244 | 0.0658 | 0.00338 | 0.0508
PET substrate: aFilm, 60 °C, pH 7.5 | 0.00625 | 0.213 | 0.0101 | 0.186
PET substrate: aFilm, 60 °C, pH 8.5 | 0 | 0.105 | 0.00697 | 0.0862
PET substrate: aFilm, 60 °C, pH 9.5 | 0 | 0.143 | 0.0114 | 0.454
PET substrate: aFilm, 70 °C, pH 4.5 | 0 | 0 | 0 | 0
PET substrate: aFilm, 70 °C, pH 5.5 | 0 | 0.00251 | 0 | 0
PET substrate: aFilm, 70 °C, pH 6.5 | 0 | 0.00766 | 0 | 0
PET substrate: aFilm, 70 °C, pH 7.5 | 0 | 0 | 0.00351 | 0.00319
PET substrate: aFilm, 70 °C, pH 8.5 | 0 | 0.0146 | 0.00376 | 0.00941
PET substrate: aFilm, 70 °C, pH 9.5 | 0 | 0 | 0.00877 | 0.03467
PET substrate: cryPow, 60 °C, pH 4.5 | 0 | 0 | 0 | 0
PET substrate: cryPow, 60 °C, pH 5.5 | 0 | 0.0126 | 0 | 0.0031
PET substrate: cryPow, 60 °C, pH 6.5 | 0 | 0.0226 | 0 | 0.00386
PET substrate: cryPow, 60 °C, pH 7.5 | 0.0022 | 0.104 | 0 | 0.0408
PET substrate: cryPow, 60 °C, pH 8.5 | 0 | 0.0471 | 0 | 0.0159
PET substrate: cryPow, 60 °C, pH 9.5 | 0 | 0.0249 | 0.00389 | 0.0959
PET substrate: cryPow, 70 °C, pH 4.5 | 0 | 0 | 0 | 0
PET substrate: cryPow, 70 °C, pH 5.5 | 0 | 0 | 0 | 0
PET substrate: cryPow, 70 °C, pH 6.5 | 0 | 0 | 0 | 0
PET substrate: cryPow, 70 °C, pH 7.5 | 0 | 0 | 0 | 0
PET substrate: cryPow, 70 °C, pH 8.5 | 0 | 0.00527 | 0 | 0
PET substrate: cryPow, 70 °C, pH 9.5 | 0 | 0 | 0 | 0.0139
